According to FireProtDB:
Values joined by “and” are separate entries in the source; they are usually repeats but may differ in a detail not shown here. Equal values may be shown once.

[1] = Escherichia coli, pH 7, Thermal, CD, phosphate 50 mM, reversible: yes
[2] = Homo sapiens, pH 7.6, Thermal, CD, Sodium phosphate 20 mM, NaCl 0.1 M, reversible: no, structure 1OWA
[3] = Homo sapiens, pH 5, 25 °C, Urea, Fluorescence, Sodium acetate 50 mM, reversible: yes, structure 1TEN
[4] = Homo sapiens, pH 7.3, 25 °C, GdnHCl, Fluorescence, Na2HPO4/NaH2PO4 20 mM, structure 1TIT
[5] = Homo sapiens, pH 7.4, 25 °C, GdnHCl, CD, PBS, structure 1TIT
[6] = Mus musculus, pH 6.88, 5 °C, Pressure, NMR, Tris 20 mM, reversible: yes, structure 1MBG
[7] = Salmo salar, pH 7.1, Thermal, CD, HEPES 10 mM, NaCl MgCl2 30 mM 3mM

Sequence of Tropomyosin alpha-1 chain G27A, Q91472 (Q91472 entry or part of it G27A | G27A): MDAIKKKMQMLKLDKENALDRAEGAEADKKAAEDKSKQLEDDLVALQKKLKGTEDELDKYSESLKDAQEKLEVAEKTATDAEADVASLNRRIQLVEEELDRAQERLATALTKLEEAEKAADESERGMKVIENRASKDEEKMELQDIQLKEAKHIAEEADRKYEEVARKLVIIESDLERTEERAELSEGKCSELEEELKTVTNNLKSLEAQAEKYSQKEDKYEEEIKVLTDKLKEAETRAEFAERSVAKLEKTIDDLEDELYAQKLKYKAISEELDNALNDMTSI
Sequence of Tropomyosin alpha-1 chain G24A, Q91472 (Q91472 entry or part of it G24A | G24A): as the sequence (Q91472 entry or part of it G27A | G27A) above, with G24A, A27G counted along it
Sequence of Tropomyosin alpha-1 chain G24A|G27A, Q91472 G24A G27A (Q91472 entry or part of it G24A|G27A | G24A G27A): as the sequence (Q91472 entry or part of it G27A | G27A) above, with G24A counted along it
Sequence of Transcriptional activator Myb V103L, P06876 (P06876 whole entry V103L): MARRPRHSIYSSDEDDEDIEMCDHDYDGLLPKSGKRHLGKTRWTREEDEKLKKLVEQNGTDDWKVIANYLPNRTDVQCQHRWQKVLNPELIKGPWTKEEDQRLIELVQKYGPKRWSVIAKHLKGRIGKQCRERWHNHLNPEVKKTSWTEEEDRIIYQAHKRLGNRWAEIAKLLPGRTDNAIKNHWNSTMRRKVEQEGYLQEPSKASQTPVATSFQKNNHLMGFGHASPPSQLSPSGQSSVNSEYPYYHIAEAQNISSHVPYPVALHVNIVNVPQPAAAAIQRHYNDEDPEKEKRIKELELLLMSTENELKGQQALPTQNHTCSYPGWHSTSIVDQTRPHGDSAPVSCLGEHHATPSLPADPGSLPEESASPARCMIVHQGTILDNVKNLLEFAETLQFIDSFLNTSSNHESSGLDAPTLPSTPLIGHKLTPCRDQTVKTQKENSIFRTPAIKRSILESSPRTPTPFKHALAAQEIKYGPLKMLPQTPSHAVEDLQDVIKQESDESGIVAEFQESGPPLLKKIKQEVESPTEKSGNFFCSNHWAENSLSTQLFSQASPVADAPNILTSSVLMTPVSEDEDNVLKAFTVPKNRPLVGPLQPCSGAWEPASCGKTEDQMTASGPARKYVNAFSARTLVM
Sequence of Tropomyosin alpha-1 chain wild type, Q91472 (Q91472 entry or part of it): as the sequence (Q91472 entry or part of it G27A | G27A) above, with A27G counted along it

Soluble cytochrome b562 wild type, P0ABE7
unfolding free energy (Escherichia coli, pH 7, 20 °C, Urea, CD, Potassium phosphate 50 mM, reversible: yes): 6.6 kcal/mol and 3.2 kcal/mol | heat capacity change of unfolding [1]: 2.4 kcal/mol/K and 1.1 kcal/mol/K | unfolding enthalpy (van 't Hoff) [1]: 94 kcal/mol and 53 kcal/mol

Spectrin alpha chain, erythrocytic 1, P02549 A2023V
Tm [2]: 60.5 °C | change of melting temperature, mutant - wild type (higher = more stable) [2]: -2 °C

Tenascin, P24821 Y869A
ddG of mutation (higher = less stable) [3]: -1.88 kcal/mol

Tenascin, P24821 Y869F
ddG of mutation (higher = less stable) [3]: -3.22 kcal/mol

Titin C12723S|C12739S, Q8WZ42 C12723S C12739S
ddG of mutation (higher = less stable) [4]: -3.2 kcal/mol | denaturant m value [4]: 2.8 kcal/mol/M

Titin F12749L, Q8WZ42
ddG of mutation (higher = less stable) [5]: 3.06 kcal/mol

Titin I12699A, Q8WZ42
ddG of mutation (higher = less stable) [5]: 2.89 kcal/mol

Titin L12717A, Q8WZ42
ddG of mutation (higher = less stable) [5]: 2.67 kcal/mol

Titin L12736A, Q8WZ42
ddG of mutation (higher = less stable) [5]: 5.27 kcal/mol

Titin V12689A, Q8WZ42
ddG of mutation (higher = less stable) [5]: 2.37 kcal/mol

Titin V12762A, Q8WZ42
ddG of mutation (higher = less stable) [5]: 4.78 kcal/mol

Transcriptional activator Myb V103L, P06876
ddG of mutation (higher = less stable) [6]: -0.48 kcal/mol | unfolding free energy [6]: 1.75 kcal/mol

Tropomyosin alpha-1 chain G24A, Q91472
Tm [7]: 36.9 °C | change of melting temperature, mutant - wild type (higher = more stable) [7]: -0.1 °C

Tropomyosin alpha-1 chain G24A|G27A, Q91472 G24A G27A
Tm [7]: 38.1 °C | change of melting temperature, mutant - wild type (higher = more stable) [7]: 1.1 °C

Tropomyosin alpha-1 chain G27A, Q91472
Tm [7]: 37.3 °C | change of melting temperature, mutant - wild type (higher = more stable) [7]: 0.3 °C

Tropomyosin alpha-1 chain wild type, Q91472
Tm [7]: 37 °C

Twitchin, Q23551 Y4220F
ddG of mutation (higher = less stable) (Caenorhabditis elegans, pH 7, 20 °C, Urea, Fluorescence, Sodium phosphate 50 mM, reversible: yes, structure 1WIT): -2.15 kcal/mol
